According to patent US20240216513A1, “FATTY ACID-BIFUNCTIONAL DEGRADER CONJUGATES AND THEIR METHODS OF USE” (Novartis AG, priority 2021, published 2024):

Experiments:
[1] = target: T1, BTK (Homo sapiens, UniProt Q06187); test: PK/PD in TMD8 tumor-bearing mice: BTK levels in tumor by Meso Scale Discovery; assay type: in vivo, mouse; conditions: I.v.; 40 umol/kg
T1 construct: endogenous in cells; host or cells: TMD8 tumour xenografts in SCID/BEIGE mice
Procedure: (§1) All animal experiments were performed according to procedures covered by permit number BS-1974, BS-1975 and BS-2904 issued by the Kantonales Veterinäramt Basel-Stadt and strictly adhered to the Eidgenössisches Tierschutzgesetz and the Eidgenössische Tierschutzverordnung. Female Sprague Dawley rat were obtained from Charles Rivers (Germany), female Balb/c mice from Charles Rivers (Italy) and female SCID/BEIGE (C.B-Igh-1b/GbmsTac-Prkdcscid-Lystbg N7) mice from Taconic. All the animals were housed in a pathogen-controlled environment with access to food and water ad libitum and they were identified with transponders.
(§2) Subcutaneous TMD8 tumors were induced by injecting tumor cells expanded in vitro in the right flank of SCID/BEIGE mice. As soon as the injection was finished, antagonization (naloxone, flumazenil and atipamezole injected s.c.) was injected and mice are put on a warming pad for recovery and carefully checked during that time.
(§3) For PK experiments, non-tumor bearing mice or rats were treated once (10 mL/kg) with a compound either i.v. or s.c. Serial blood samplings from the tail vein (5-20 μl) were collected during the course of the experiment. For PK/PD experiments in tumor-bearing mice, compound was administered once (10 mL/kg) either i.v. or s.c. Animals were randomized into groups of n=3 and tissue samples were collected at several time points. At the times indicated, animals were anaesthetized by exposure to 2-3% v/v isoflurane in medical oxygen. They were sacrificed without recovering from anesthetic after blood sampling into commercially prepared EDTA coated tubes (Milian, cat #TOM-14C) in order to extract plasma. The tissues were excised, weighted and rapidly frozen in liquid nitrogen. Later, tumors were cryogenic dry pulverized with the CryoPrep™ system (model CP-02, Covaris). For efficacy experiments in ectopic tumor-bearing mice, animals were randomized into groups of n=6 for a mean tumor size of 100 mm^3 and compound was administered either i.v. q3w or s.c. q2w. When implanted in brain, animals were randomized into groups of n=4 for a mean bioluminescence of 1.0-2.0E+06 [p/s]/[ρW/cm^2] and compound was administered i.v. qw. Tumor response were reported with the measures of tumor volumes or bioluminescence from the treatment start. Concentrations of compound in blood and tissues were determined simultaneously by UPLC/MS-MS. BTK and IL-10 levels in tumor were determined by Meso Scale Discovery (MSD).

[2] = In vivo pharmacokinetic study in mice (i.v. or s.c.), FAC and payload in blood; design: species or system mouse; conditions: male, C57/B16, mouse, in vivo, sc, 40 umol/kg
Procedure: (§4) Pharmacokinetic studies were conducted in male C57/B16 mice; male Sprague-Dawley rats; male Beagle dogs and male Cynomolgus monkeys. 3 animals per group were used for each study performed. All studies were performed in accordance with local animal welfare regulations.
(§5) […] Serial 30 µL blood samples were collected via venipuncture of the tail vein in mouse, and via the cannulated jugular vein in rats at defined timepoints to 216 hours (into EDTA coated tubes).
(§6) Each blood sample was precipitated with acetonitrile containing internal standard; samples were mixed and centrifuged (20 minutes 4000 RPM at 4° C.). Supernatant was transferred to a microwell plate and evaporated under nitrogen at 60° C. Residue was resuspended in acetonitrile/water (7:3 v/v); plate sealed and transferred to an ultrasonic bath for 3 minutes, prior to analysis. Quantification was performed by LC-MS/MS (SciexAP16500 Q-trap, Shimadzu Nexera X2) using a Phenomenex Polar RP analytical column (2.5 μm particle size; 50×2 mm). The mobile phase consisted of solvent A (0.1% formic acid in water) and solvent B (0.1% formic acid in acetonitrile). The fatty acid conjugate and API were detected using multiple reaction monitoring.
(§7) Data analysis and calculation of non-compartmental pharmacokinetic parameters was
(§8) performed using an in-house analysis. Following intravenous administration whole blood clearance was calculated by the dose administered divided by AUC0-inf. Volume of distribution at steady state was calculated as MRT*CL, where MRT is the mean residence time, calculated by AUMC0-inf/AUC0-inf. The half-life (t1/2) of the terminal elimination phase was calculated by 0.693/λ. For both intravenous and subcutaneous administration, the systemic exposures were determined by calculating the area under the blood concentration time curve (AUC) from time zero to the last observed quantifiable concentration (AUClast) by using the linear trapezoidal method and normalised to dose. Extrapolated AUC (AUC0-inf) is calculated by addition of AUClast and AUCtlast-inf; where AUCtlast-inf is calculated based on Clast/λ. The slope of the terminal elimination phase was estimated by linear regression of the terminal data points (minimum 3 points) from a natural log concentration versus time plot of the data. Bioavailability was calculated as the dose normalized ratio of […] AUCinf to intravenous AUCinf (100*[SC AUCinf/SC dose]/[IV AUCinf/IV dose]). Following subcutaneous administration Cmax is calculated as the average maximum observed peak concentration and Tmax is the time associated with the determined Cmax.
as §3, with “Concentrations of compound in blood and tissues were determined simultaneously by UPLC/MS-MS. BTK and IL-10 levels in tumor were determined by Meso Scale Discovery (MSD).” left out

[3] = In vivo pharmacokinetic study in Cynomolgus monkeys (i.v. or s.c.), FAC and payload in blood; design: species or system cynomolgus monkey
Procedure: as §4
(§9) Between 1 and 10 µM/kg FAC was administered either intravenously or subcutaneously as a solution in 10 mM PBS with NaOH (dose volume 0.4 mL/kg in dog and monkey s.c. and 0.2 mL/kg i.v. in monkey). Serial 100 µL blood samples were collected via venipuncture of the cephalic vein at defined timepoints to 336 hours (into EDTA coated tubes).
as §6, §7, §8

[4] = In vivo pharmacokinetic study in Beagle dogs (i.v. or s.c.), FAC and payload in blood; design: species or system dog
Procedure: as §4, §9, §6, §7, §8

[5] = In vivo pharmacokinetic study in rats (i.v. or s.c.), FAC and payload in blood; design: species or system rat; conditions: male, Sprague-Dawley, rat, in vivo, sc, 40 umol/kg
Procedure: as §4, §5, §6, §7, §8
as §3, with “Concentrations of compound in blood and tissues were determined simultaneously by UPLC/MS-MS. BTK and IL-10 levels in tumor were determined by Meso Scale Discovery (MSD).” left out

[6] = tested on: TMD8 tumors; test: Efficacy in ectopic (subcutaneous) TMD8 tumor-bearing SCID/BEIGE mice, tumor volume; assay type: in vivo, mouse; conditions: I.v.
Procedure: as §1, §2, §3

T1 sequence (Q06187 whole entry): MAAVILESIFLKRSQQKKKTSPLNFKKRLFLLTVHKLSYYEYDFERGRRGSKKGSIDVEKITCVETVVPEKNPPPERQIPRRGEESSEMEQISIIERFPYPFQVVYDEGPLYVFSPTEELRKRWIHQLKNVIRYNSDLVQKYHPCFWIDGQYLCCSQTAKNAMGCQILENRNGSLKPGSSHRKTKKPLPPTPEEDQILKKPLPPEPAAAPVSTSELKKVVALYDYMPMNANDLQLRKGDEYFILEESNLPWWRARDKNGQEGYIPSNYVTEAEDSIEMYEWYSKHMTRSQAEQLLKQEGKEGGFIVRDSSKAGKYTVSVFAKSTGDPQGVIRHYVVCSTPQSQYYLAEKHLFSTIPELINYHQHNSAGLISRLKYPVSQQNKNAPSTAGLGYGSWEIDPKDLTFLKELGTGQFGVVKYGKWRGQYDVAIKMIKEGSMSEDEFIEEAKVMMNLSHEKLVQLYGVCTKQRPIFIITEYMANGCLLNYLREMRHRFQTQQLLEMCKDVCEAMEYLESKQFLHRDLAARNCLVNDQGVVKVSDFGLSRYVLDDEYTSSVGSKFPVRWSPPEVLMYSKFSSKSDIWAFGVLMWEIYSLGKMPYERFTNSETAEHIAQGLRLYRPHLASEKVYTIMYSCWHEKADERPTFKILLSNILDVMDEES

Structure (SMILES) | Duration of BTK degradation in mouse ≥90% [1] | AUC [2] | Cmax [2] | Fatty Acid Conjugate C0-uM d.n. Cyno ([3]; analyte conjugate, d.n., Conj. i.v. dose 1 umol/kg) | AUC ([3]; male, cynomolgus monkey, whole blood, sc, Cyno, Conj. s.c. dose 1 umol/kg, read-out: Lipophilic Acid Conjugate AUC) | Cmax ([3]; male, cynomolgus monkey, whole blood, sc, Cyno, Conj. s.c. dose 1 umol/kg, read-out: Lipophilic Acid Conjugate Cmax) | Fatty Acid Conjugate C0-uM d.n. Dog ([4]; analyte conjugate, d.n., Conj. i.v. dose 10 umol/kg) | AUC ([4]; male, Beagle, whole blood, sc, Dog, Conj. s.c. dose 10 umol/kg, read-out: Lipophilic Acid Conjugate AUC) | Cmax ([4]; male, Beagle, whole blood, sc, Dog, Conj. s.c. dose 10 umol/kg, read-out: Lipophilic Acid Conjugate Cmax) | Cmax [5] | AUC ([5]; Lipophilic Acid Conjugate AUC) | Dosing to achieve sustained ~90% regression [6]
CCCCCCCCCCCC(CCCCCCCCCCC(=O)O)(C(=O)O)C(=O)NCCOCCOCCOCCOCCOCCOCCOCCOCCOCCOCCOCCOCCC(=O)NCC(=O)OC(C)(C)c1ccc(C(=O)Nc2cc(F)cc(-c3ncnc4[nH]c(-c5ccc(CN6CCC(OC7CCN(CCn8cccc(CN9CCC(=O)NC9=O)c8=O)CC7)CC6)cc5)cc34)c2C)c(F)c1 (stereo not shown) [Compound B1, 2-((44-(4-((3-(6-(4-((4-((1-(2-(3-((2,4-Dioxotetrahydropyrimidin-1(2H)-yl)methyl)-2-oxopyridin-1(2H)-yl)ethyl)piperidin-4-yl)oxy)piperidin-1-yl)methyl)phenyl)-7H-pyrrolo[2,3-d]pyrimidin-4-yl)-5-fluoro-2-methylphenyl)carbamoyl)-3-fluorophenyl)-44-methyl-39,42-dioxo-3,6,9,12,15,18,21,24,27,30,33,36,43-tridecaoxa-40-azapentatetracontyl)carbamoyl)-2-undecyltridecanedioic acid] | 10 days | 3860 µM·h | 71 µM | 9.9 µM | 26.1 µM·h | 3.8 µM | 3.3 µM | 304 µM·h | 37.5 µM | 11 µM | 667 µM·h | 40 umol/kg q3w
CCCCCCCCCCC[C@@](CCCCCCCCCCC(=O)O)(C(=O)O)C(=O)NCCOCCOCCOCCOCCOCCOCCOCCOCCOCCOCCOCCOCCC(=O)NCC(=O)OC(C)(C)c1ccc(C(=O)Nc2cc(F)cc(-c3ncnc4[nH]c(-c5ccc(CN6CCC(OC7CCN(CCn8cccc(CN9CCC(=O)NC9=O)c8=O)CC7)CC6)cc5)cc34)c2C)c(F)c1 (single isomer, unassigned) [Compound B2] | 10 days | 1860 µM·h | 60 µM | – | – | – | – | – | – | – | – | 60 umol/kg q3w
